This experiment deals with MBP-tagged TANGO1-Coil2 (amino acids 1440-1650) (human) (UniProt Q5JRA6). Put plainly: pull-down.

Here are results for one substance from paper PMC3128532.

What is called stoichiometry N is a count of units in the complex or per binding partner.

Chain of UniProt Q5JRA6 (Q5JRA6 1440-1650): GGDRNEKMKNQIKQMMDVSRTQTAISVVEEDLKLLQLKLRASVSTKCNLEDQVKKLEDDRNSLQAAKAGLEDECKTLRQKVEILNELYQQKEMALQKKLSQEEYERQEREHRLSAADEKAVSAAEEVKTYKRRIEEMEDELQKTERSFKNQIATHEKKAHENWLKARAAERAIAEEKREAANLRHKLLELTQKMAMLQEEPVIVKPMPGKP

“ColdTF-tagged cTAGE5-Coil2 (amino acids 301-650) (domain or fragment)” yielded a stoichiometry N of 1.
